Data taken from PMC4772073.

Molecular target: dUltramarine2
Test: SEC; gel filtration chromatography; conditions not given in the main text (Supplementary Fig. 7)

- stoichiometry N: 2
Substance: dUltramarine2
